Measured values from patent US20090035308A1.

Biological target: Notch1-Fc
Assay: competition ELISA: Dll4-Fc premixed with 50 ng Dll4 (E8)-AP on coated Notch1-Fc; reference Dll4-L1-Fc

B1: Dll4-L2-Fc (Fc fusion, part only; not given: linker, Fc, not shown: a dimerising Fc or GST)
chain, part: SGVFQLQLQEFINERGVLASGRPCEPGCRTFFRVCLKHFQAVVSPGPCTFGTVSTPVLGTNSFAVRDDSSGGGRNPLQLPFNFTWPGTFSLIIEAWHAPGDDLRPEALPPDALISKIAIQGSLAVGQNWLLDEQTSTLTRLRYSYRVICSDNYYGDNCSRLCKKRNDHFGHYVCQPDGNLSCLPGWTGEYCQQPICLSGCHEQNGYCSKPAECLCRPGWQGRLCNECIPHNGCRHGTCSTPWQCTCDEGWGGLFCDQDLNYCTHHSPCKNGATCSNSGQRSYTCTCRPGYTGVDCELELSECDSNPCRNGGSCKDQEDGYHCLCPPGYYGLHCEHSTLSCADSPCFNGGSCRERNQGANYACECPPNFTGSNCEKKVDRCTSNPCANGGQCLNRGP
  fold difference between L1 and L2 fusion proteins: 3 fold
